Assay results as given in patent US7507790 (UNIVERSITY OF SUSSEX, dated 2009).

Target: T1, SAF-p2a
T1 construct: also called self-assembling peptide; straight
T1 peptide: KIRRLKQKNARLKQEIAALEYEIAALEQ
Experiment: co-assembly into fibres, seen by TEM (each peptide at 100 µM, 22° C. overnight)
Protocol: All samples of fibres were prepared with SAF-p1 and SAF-p2a (each at 100 μM concentration) with the designated amounts of FiSh peptides, and incubated at 22° C. overnight following the techniques described in Pandya et al., 2000 (supra).

binding result: binds
B1: SAF-p1 (peptide)
peptide: KIAALKQKIASLKQEIDALEYENDALEQ
notes: Synthetic de novo leucine-zipper peptide made by Fmoc solid-phase synthesis; also called self-assembling peptide; straight
